According to PMC5374107, “Structure-Guided Identification of a Family of Dual Receptor-Binding PfEMP1 that Is Associated with Cerebral Malaria” (Cell Host & Microbe, 2017):

Tests used:
Details in all cases: both partners purified
[1] = target: T1, Recombinant His-tagged EPCR (human, UniProt Q9UNN8 18-238, biotin (biotinylated by BirA)); assay: SPR; Biacore T-200; biotinylated EPCR immobilized to 650 RU on a CAP chip (Biotin Capture Kit); head structures injected, two-fold dilutions 500 nM to 4 nM, 30 µL/min, 240 s association, 720 s dissociation; 10 mM HEPES pH 7.4, 300 mM NaCl, 0.05% Tween-20, 2 mg/ml ssDNA; one-site kinetic model
T1 construct: endothelial protein C receptor (EPCR); also called endothelial protein C receptor; source: S2 cells, purified and biotinylated (Lau et al., 2015)
T1 sequence: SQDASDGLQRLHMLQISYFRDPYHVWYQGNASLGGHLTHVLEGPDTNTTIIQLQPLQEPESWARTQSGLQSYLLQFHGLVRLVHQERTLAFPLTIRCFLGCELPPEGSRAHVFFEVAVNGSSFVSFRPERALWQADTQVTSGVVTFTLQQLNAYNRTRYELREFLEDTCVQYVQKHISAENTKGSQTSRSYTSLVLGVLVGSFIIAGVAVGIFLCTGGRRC

ICAM-1D1D5-Fc = target: T2, ICAM-1D1D5-Fc (human); assay: SPR; Biacore T-200; ICAM-1D1D5 Fc immobilized to 1,400 RU on a CM5 chip pre-coupled to Protein A; head structures injected, two-fold dilutions 4 nM to 500 nM, 40 µL/min, 240 s association, 600 s dissociation; 10 mM HEPES pH 8.0, 300 mM NaCl, 0.05% Tween-20; one-site kinetic model
T2 construct: intercellular adhesion molecule 1 (ICAM-1), domains D1 to D5; captured on protein A by its Fc; also called ICAMD1D5; ICAM-1-Fc; source: HEK cells, recombinant (Bengtsson et al., 2013a)

[2] = target: T1, Recombinant His-tagged EPCR; assay: SPR; Biacore T-200; dual binding: ICAM-1D1D5 Fc immobilized (1,800, 2,100 or 1,500 RU) on Protein A CM5 chip, head structure injected at 250 nM for 240 s, then EPCR injected, two-fold dilutions 250 nM to 16 nM, 30 µL/min, 240 s association, 720 s dissociation; 10 mM HEPES pH 8.0, 300 mM NaCl, 0.05% Tween-20; one-site kinetic model

B1: PF11_0521 head structure (NTS-DBLα1.7-CIDRα1.4-DBLβ3) (domain or fragment)
chain: MGNAIPATPDPIFINESYKSARNVLENVARLIKAKATKDVKRHRNVLKGNLRNAKFYHPFSKERPYYKSACDLDYRFHSNIWSGDNTYRHPCAGRNRNRFSYEGEAECRISRITGNKTEHGACAPYRRRHLCDYIFHQVNDNYIKTSDDLLGNLLVTAKYEGESIVNSYANSGMFNVCTALARSFADIGDIIRGKDLYLGNGDYKEKVSNNLRAIFNKIYENLNDPKLKKHYQKDAPNYYKLRDDWWNANREDVWKALTCNAPYEAQYFIKPSDKEHSFSSEYCGHYKNGDPLTNLDYVPQFLRWFEEWAEEFCRIKKIKLENVKNACRDEKKRKYCSLNGFDCTQTIWKKKVFGRGNDCTNCSFKCFPYEIWLGNQREAFRKQKEKYAKEIEAYVTNRGIPKSSINNGYYKDFYNKLKEKTYNTVDEFINLLNEGRYCKKQKPEEENIDFIKTGEKGTFYRSDYCQVCPDCGVDCSSGTCIEKKDDINCGKKINYEPPHGVKPIDIIVLYSGNEEGEITKRLSEFCTDSSNNKGKNYEQWKCYYKNGDDNKCKMVKNSGNNITEEKIISFDEFFYVWVRKLLIDSIKWENELNNCIDNTSTHCNKECNKNCECFDKWVKKKEDEWKNVKNVFENKNGTSHNYYNKLNGLFKGFFFEVMDKLNKDETKWNKLIESLRTKIDSSKENIGTGNTQDTIKVLLDHLKETATICKDNNTNEACETSRNRKTNPCAKPHGKKLATVKQIAQYYKRKAYIQLNERGSRSALKGDASQGQYDRGGKADDFKTKLCEINEKHSNARSNSLNPCNGKDNNKVRFNVGTPWQSGEKIATATDVYLPPRRQHFCTSNLEYLINGGHQAILNVKNGKINHSFLGDVLLAAKYQAQHTMKDYKSKNDKEGICRAIRYSFADIGDIIKGTDLWDKDGGEIKTQNHLVTIFDKIKAQLPKDIKGKYTGTKHLELRKDWWEANRDQVWKAMQCGNDNPCSGESDHTPLHDYIPQRLRWMTEWAEWYCKEQSRLYDKLKVCEECMRKGESCTKGSGECATCKEACEEYNKEIKKWEQQWDAISYKYLMLYAKARITAINGGPGYYNTEVQEEDKPVVDFLYNLYLQNGGKKGPPPDTHRVKALIARVKRDAARNRVKRADGSSATRVTATTTITPYSTAAGYIHQEAHIGDCQKQTQFCKNKNGSDVSDTEADPTYAFRDKPHDHDTACKC
Kd [1]: 1.18 nM
koff [1]: 4.5e-05 s⁻¹
kon [1]: 38100 M⁻¹ s⁻¹
Kd (ICAM-1D1D5-Fc): 2.33 nM
koff (ICAM-1D1D5-Fc): 5.41e-05 s⁻¹
kon (ICAM-1D1D5-Fc): 23200 M⁻¹ s⁻¹

B2: ICAM-1D1D5-Fc::PF11_0521 head structure complex (complex)
chain 1: QTSVSPSKVILPRGGSVLVTCSTSCDQPKLLGIETPLPKKELLLPGNNRKVYELSNVQEDSQPMCYSNCPDGQSTAKTFLTVYWTPERVELAPLPSWQPVGKNLTLRCQVEGGAPRANLTVVLLRGEKELKREPAVGEPAEVTTTVLVRRDHHGANFSCRTELDLRPQGLELFENTSAPYQLQTFVLPATPPQLVSPRVLEVDTQGTVVCSLDGLFPVSEAQVHLALGDQRLNPTVTYGNDSFSAKASVSVTAEDEGTQRLTCAVILGNQSQETLQTVTIYSFPAPNVILTKPEVSEGTEVTVKCEAHPRAKVTLNGVPAQPLGPRAQLLLKATPEDNGRSFSCSATLEVAGQLIHKNQTRELRVLYGPRLDERDCPGNWTWPENSQQTPMCQAWGNPLPELKCLKDGTFPLPIGESVTVTRDLEGTYLCRARSTQGEVTRKVTVNVLSPRYE
chain 2: B1 chain
Kd [2]: 11.4 nM
koff [2]: 0.000195 s⁻¹
kon [2]: 17200 M⁻¹ s⁻¹
